Measurements as given in patent US20230365648A1.

Tests used:
Test in all cases: BLI (Octet)
Human CD47 (human) = Human CD47 (human) (UniProt Q08722)
Cyno CD47 (Cyno monkey) = target: Cyno CD47 (Cyno monkey)
Rat CD47 (rat) = Rat CD47 (rat) (UniProt P97829)
Chain of Rat CD47 (rat) (P97829 19-140): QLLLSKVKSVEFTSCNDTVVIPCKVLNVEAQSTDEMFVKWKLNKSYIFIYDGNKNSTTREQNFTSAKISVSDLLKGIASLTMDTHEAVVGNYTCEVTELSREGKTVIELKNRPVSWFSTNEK

Chain of Human CD47 (human) (Q08722 19-139): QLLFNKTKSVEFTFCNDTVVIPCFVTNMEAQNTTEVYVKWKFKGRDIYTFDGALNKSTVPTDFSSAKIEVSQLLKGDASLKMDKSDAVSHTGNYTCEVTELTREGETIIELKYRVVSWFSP

Anti-human CD47 (clone MIAP410) gave a Kd (Human CD47 (human)) of 0.216 nM, a Kd (Cyno CD47 (Cyno monkey)) of 0.289 nM and a Kd (Rat CD47 (rat)) of 1.16 nM.
